The values below come from patent publication US20120219559A1 (Johns Hopkins, published 2012).

For assay [1], the target named is T1, human B7-H2Ig fusion protein (human, UniProt O75144 19-258).
T1 construct: Ig (Fc) part not given
T1 sequence: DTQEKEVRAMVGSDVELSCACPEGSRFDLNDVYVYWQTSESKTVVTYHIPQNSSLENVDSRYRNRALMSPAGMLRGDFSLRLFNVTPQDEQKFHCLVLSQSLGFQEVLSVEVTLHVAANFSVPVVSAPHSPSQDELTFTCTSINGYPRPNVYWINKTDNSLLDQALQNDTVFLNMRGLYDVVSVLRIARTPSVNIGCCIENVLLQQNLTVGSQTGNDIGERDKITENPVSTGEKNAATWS
Briefly: flow cytometry on 293T cells transfected with human ICOS.

The target of the next assay is T2, B7-H1Ig (Homo sapiens, UniProt Q9NZQ7).
T2 construct: Ig fusion protein purchased from R&D systems; also called human B7-H1Ig fusion protein
T2 sequence (Q9NZQ7 19-239 limits assumed): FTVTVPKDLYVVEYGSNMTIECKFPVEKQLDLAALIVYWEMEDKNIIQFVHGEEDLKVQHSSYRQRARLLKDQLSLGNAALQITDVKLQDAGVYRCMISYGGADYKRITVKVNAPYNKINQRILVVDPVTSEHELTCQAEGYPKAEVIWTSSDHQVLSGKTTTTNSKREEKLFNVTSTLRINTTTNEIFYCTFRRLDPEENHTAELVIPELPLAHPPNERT
Briefly: CDS well image, 293T cells transfected with the human gene, stained with the human fusion protein.

The next assay addresses T3, B7-DCIg (Homo sapiens, UniProt Q9BQ51).
T3 construct: Ig fusion protein purchased from R&D systems; also called human B7-DCIg fusion protein
T3 sequence (fusion protein, looked up): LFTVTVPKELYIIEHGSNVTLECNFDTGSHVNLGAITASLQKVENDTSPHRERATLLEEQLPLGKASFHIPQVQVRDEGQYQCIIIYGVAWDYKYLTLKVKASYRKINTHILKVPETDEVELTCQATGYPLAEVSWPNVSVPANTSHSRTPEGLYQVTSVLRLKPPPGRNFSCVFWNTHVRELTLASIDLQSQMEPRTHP
The assay is described as above.

The target in assay [2] is T4, human B7-1Ig fusion protein (human, UniProt P33681 35-242).
T4 construct: Bought from R&D Systems; Ig (Fc) part not given
T4 sequence (looked up): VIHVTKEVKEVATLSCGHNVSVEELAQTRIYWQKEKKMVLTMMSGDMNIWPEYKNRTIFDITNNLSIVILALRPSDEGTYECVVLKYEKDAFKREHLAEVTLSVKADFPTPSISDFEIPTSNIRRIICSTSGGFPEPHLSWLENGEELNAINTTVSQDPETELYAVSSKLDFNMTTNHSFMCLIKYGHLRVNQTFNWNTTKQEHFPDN
Described as above.

The target of assay [3] is T5, human B7-2Ig fusion protein (human, UniProt P42081 26-245).
T5 construct: Bought from R&D Systems; Ig (Fc) part not given
T5 sequence (looked up): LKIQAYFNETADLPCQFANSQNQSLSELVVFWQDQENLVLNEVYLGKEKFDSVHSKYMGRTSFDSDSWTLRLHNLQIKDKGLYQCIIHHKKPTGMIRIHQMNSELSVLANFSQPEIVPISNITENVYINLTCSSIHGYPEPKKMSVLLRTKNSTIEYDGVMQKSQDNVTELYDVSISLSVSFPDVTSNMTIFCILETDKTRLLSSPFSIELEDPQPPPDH
The assay is described as above.

B1: human ICOS, full length, expressed on cells (ICOS+293T cells) (receptor)
chain: EINGSANYEMFIFHNGGVQILCKYPDIVQQFKMQLLKGGQILCDLTKTKGSGNTVSIKSLKFCHSQLSNNSVSFFLYNLDHSHANYYFCNLSIFDPPPFKVTLTGGYLHIYESQLCCQLKFWLPIGCAAFVVVCILGCILICWLTKKKYSSSVHDPNGEYMFMRAVNTAKKSRLTDVTL
notes: This id also stands for ICOS on human T cells in the functional rows
On to B1, for which the binding result in assay [1] is on record as “binds”; with B7-H1Ig, “no binding”; with B7-DCIg, “no binding”; in assay [2] it was “no binding”; in assay [3], “no binding”.
